Experimental findings from publication PMC12305717 are described below.

Residue numbers refer to the chain shown, from its start. Names and notes keep the numbering of the source.

The target in experiment [1] is Ssa1 (yeast cytosolic Hsp70) (yeast) (UniProt P10591).
The target is the same in experiment [2]. The source holds these as a separate data set.
Experiment [3] concerns the target DnaK (E. coli Hsp70) (E. coli) (UniProt P0A6Y8).

Sequence of Ssa1 (yeast cytosolic Hsp70) (yeast) (P10591 whole entry): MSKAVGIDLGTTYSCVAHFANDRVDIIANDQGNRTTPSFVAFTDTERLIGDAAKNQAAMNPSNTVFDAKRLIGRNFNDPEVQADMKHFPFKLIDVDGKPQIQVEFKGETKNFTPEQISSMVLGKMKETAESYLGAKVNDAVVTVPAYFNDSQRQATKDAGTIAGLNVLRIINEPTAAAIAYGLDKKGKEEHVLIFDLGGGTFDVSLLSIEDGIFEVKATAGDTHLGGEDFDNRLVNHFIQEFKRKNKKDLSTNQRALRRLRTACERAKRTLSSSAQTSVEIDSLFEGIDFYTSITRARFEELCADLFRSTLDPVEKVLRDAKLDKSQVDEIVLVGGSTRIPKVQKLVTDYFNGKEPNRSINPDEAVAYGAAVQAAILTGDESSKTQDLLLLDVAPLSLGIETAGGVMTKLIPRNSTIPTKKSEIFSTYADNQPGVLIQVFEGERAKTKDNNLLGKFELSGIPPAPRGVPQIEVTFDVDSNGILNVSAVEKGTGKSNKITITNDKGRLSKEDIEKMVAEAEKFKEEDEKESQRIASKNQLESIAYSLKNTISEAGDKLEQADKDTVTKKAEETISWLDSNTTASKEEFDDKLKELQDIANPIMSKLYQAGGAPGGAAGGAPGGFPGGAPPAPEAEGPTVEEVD
Sequence of DnaK (E. coli Hsp70) (E. coli) (P0A6Y8 whole entry): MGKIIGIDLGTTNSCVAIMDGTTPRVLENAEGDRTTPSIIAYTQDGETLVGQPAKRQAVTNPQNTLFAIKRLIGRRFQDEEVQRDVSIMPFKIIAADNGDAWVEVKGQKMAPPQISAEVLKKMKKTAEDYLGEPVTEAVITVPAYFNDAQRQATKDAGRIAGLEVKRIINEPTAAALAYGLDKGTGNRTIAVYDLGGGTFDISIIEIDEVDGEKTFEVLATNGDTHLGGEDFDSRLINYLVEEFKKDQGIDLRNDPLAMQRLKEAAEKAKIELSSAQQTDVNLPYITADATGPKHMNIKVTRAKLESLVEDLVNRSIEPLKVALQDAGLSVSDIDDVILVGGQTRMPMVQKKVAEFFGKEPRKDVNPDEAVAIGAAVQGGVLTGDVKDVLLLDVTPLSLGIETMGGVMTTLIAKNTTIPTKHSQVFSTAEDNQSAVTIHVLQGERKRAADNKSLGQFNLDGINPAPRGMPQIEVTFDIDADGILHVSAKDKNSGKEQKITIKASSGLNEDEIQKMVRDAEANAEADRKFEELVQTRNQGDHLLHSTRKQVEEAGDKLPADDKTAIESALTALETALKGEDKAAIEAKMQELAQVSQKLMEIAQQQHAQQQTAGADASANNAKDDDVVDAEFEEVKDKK

B1: Sse1 (yeast Hsp110), wild type (natural protein)
chain: MSTPFGLDLGNNNSVLAVARNRGIDIVVNEVSNRSTPSVVGFGPKNRYLGETGKNKQTSNIKNTVANLKRIIGLDYHHPDFEQESKHFTSKLVELDDKKTGAEVRFAGEKHVFSATQLAAMFIDKVKDTVKQDTKANITDVCIAVPPWYTEEQRYNIADAARIAGLNPVRIVNDVTAAGVSYGIFKTDLPEGEEKPRIVAFVDIGHSSYTCSIMAFKKGQLKVLGTACDKHFGGRDFDLAITEHFADEFKTKYKIDIRENPKAYNRILTAAEKLKKVLSANTNAPFSVESVMNDVDVSSQLSREELEELVKPLLERVTEPVTKALAQAKLSAEEVDFVEIIGGTTRIPTLKQSISEAFGKPLSTTLNQDEAIAKGAAFICAIHSPTLRVRPFKFEDIHPYSVSYSWDKQVEDEDHMEVFPAGSSFPSTKLITLNRTGDFSMAASYTDITQLPPNTPEQIANWEITGVQLPEGQDSVPVKLKLRCDPSGLHTIEEAYTIEDIEVEEPIPLPEDAPEDAEQEFKKVTKTVKKDDLTIVAHTFGLDAKKLNELIEKENEMLAQDKLVAETEDRKNTLEEYIYTLRGKLEEEYAPFASDAEKTKLQGMLNKAEEWLYDEGFDSIKAKYIAKYEELASLGNIIRGRYLAKEEEKKQAIRSKQEASQMAAMAEKLAAQRKAEAEKKEEKKDTEGDVDMD
For B1, the optimal concentration of WT Sse1 for activating the disaggregation/refolding of pre-aggregated luciferase by 6000 nM Ssa1 + 1000 nM Sis1 in experiment [1] is 600 nM. Besides, in experiment [2], the EC50 of Sse1 for raising the yields of disaggregation and refolding (luciferase activity after 2 h) of pre-aggregated MlucV or luciferase by 4000 nM Ssa1 + 1000 nM Sis1 with ATP came out at 100 nM; the IC50 of excess Sse1 (above 250 nM) for inhibiting the disaggregation and refolding reaction of 4000 nM Ssa1 + 1000 nM Sis1; complete inhibition at equimolar Sse1 and Ssa1 amounted to 1200 nM.

B2: Sse1-K69M (natural protein)
chain: B1 chain with K69M
Consider B2, for which, in experiment [1], the concentration at which excess Sse1-K69M inhibits the disaggregation/refolding by 6000 nM Ssa1 + 1000 nM Sis1, against WT Sse1 (fold lower than WT Sse1) was 4 and the optimal concentration of Sse1-K69M for activating the disaggregation/refolding of pre-aggregated luciferase by 6000 nM Ssa1 + 1000 nM Sis1 amounted to 200 nM.

B3: GrpE (E. coli nucleotide exchange factor) (natural protein)
chain: MSSKEQKTPEGQAPEEIIMDQHEEIEAVEPEASAEQVDPRDEKVANLEAQLAEAQTRERDGILRVKAEMENLRRRTELDIEKAHKFALEKFINELLPVIDSLDRALEVADKANPDMSAMVEGIELTLKSMLDVVRKFGVEVIAETNVPLDPNVHQAIAMVESDDVAPGNVLGIMQKGYTLNGRTIRAAMVTVAKAKA
Consider B3, for which, in experiment [3], the EC50 of GrpE for raising the yields of disaggregation and refolding of pre-aggregated MlucV by 4000 nM DnaK + 1000 nM DnaJ was 200 nM.
